Assay results as given in the nanobody polyreactivity screen of Harvey et al. (2022).

Experiment: yeast display, Sf9 membrane polyspecificity reagent, FACS + sequencing; frameworks hold sequencing errors
In short: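 Galactose-induced (36–48 hours) yeast carrying a synthetic nanobody display library were exposed to 10% biotinylated, detergent-solubilized Sf9 membrane reagent at 4 °C for 1 hour. FACS followed streptavidin microbead enrichment, using low and high (top ~1%) gates for expression (anti-HA) and reagent binding (streptavidin). Colony PCR, MiSeq 2 × 250 sequencing and CDR-length filtering followed. Labels for polyreactivity reflect the gate of origin.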

| Sequence | polyreactivity (PSR sort gate) |
| --- | --- |
| QVQLVESGGRLVQAGGSLRLSCAASGFTFLYYAMGWYRQAPGKERELVATITRTSRTYYADSVKGRFTISRDNAKNTVYLQMNSLKPEDTAVYYCAADTPYLRRRLGMDYWGQGTQVTVSS | high polyreactivity |
| QVQLVESGGGLVQAGGSLRLSCAASGITFTPNAMGWYRQAPGKEREFVAAITYSGGSTYYADSVKGRFTISRDNAKNTVYLQMNSLKPEDTAVYYCAADSFAWWGSRYDYWGQGTQVTVSS | low polyreactivity |
| QDQLEESGGGLRQAGGSLRLTCAASGIIFPYYTKGLYRQATGKEKLVAAISSRGGSTYYADSVKGRFTISRDNAKNTVYLQMTSLKPEDTAVYYCAAKNVYHDDFWGQGTQVTVSS | high polyreactivity |
| QVQLVESGGGLVQAGGSLRLSCAASGRTLRSNAMGWYRQAPGKERELVAAISSNGGSTYYADSVKGRFTISRDNAKNTVYLQMNSLKPEDTAVYYCAALSYYYSDRMDYWGQGTQVSVSS | low polyreactivity |
| QVQLVESGGGLVQAGGSLRLSCAASGSTFPGYAMGWYRQAPGKDRELVAAISKRGGSTRYADSVKGRFTISRDKAKNTVYLQMNSLKPEDTAVYYCNAVYTKRYKYYYTSGYWGQGTQVTVSS | high polyreactivity |
| QVQLVESGGGLVQAGGSLRLSCADSGIISIFNVIGWYRQAPGKERELVASITGRGGSTFYADSVKGRFTISRDNAKNTVYLQMNILKPEDTAVYYCATDTGYTYPVTGLYDYWGQGTQVTVSS | low polyreactivity |
| QDQLVESGGGIVQAGGSLRLSCAASGSTFYENAMGWYRQAPGKERELVAAITWSGGRTYYADSVKGRFTISRDNAKNTVYLQMNSLKPEDTAVYYCAALYGVSEEDDYWGQGTQVTVSS | high polyreactivity |
| QVQLVESGGGLVHAGCSLRLSCAASGFTFKYYAMGWYRQPPGKEREIVAAISYSGGRTYYADSVKGRFTISRDNAKNTVYLQMNSLKPEDTAVYYCATDDVWKDGYWGQGTQVTVSS | low polyreactivity |
| QVQLVESGGGLVQAGGSLRLSCAASGSTFVTNAMVWYRQAPGKEREFVAAIRWSAGNTYYADSVKGRFTISRDNAKNTVFLQMNSLKPEDTAVYYCAADIYEQRSTYYAEYYSWGQGTQVTVSS | low polyreactivity |
| QVQLVESGGGLVQAGGSLRLSCAASGRTFGGNAMGWYRQAPGKEWELVAAIDQSGGSTYYADSVKGRFTISRDNAKNTVYLQMISLKPEDTAVYYCARKTYSYFGHYYFWGQGTQVTVSS | low polyreactivity |
| QVQLVESGGGLVQAGGILRLSCADSGSTFIGYAMGWYRQAPRKERELFAAISKSGGSTYYADSVKGRFTISRDNAKNTVYLQMNSLKPEDTAVYYCIVDTSRYVSWNDYWGQGTQVTVSS | high polyreactivity |
| QVQLVESGGGLVQAGGSLRLSCAASGSTFDYNAMGWYRQAPGKERELVAAITTVGITYYADSVKGRFTISRDNAKNTVYLQMNSLKPEDTAVYYCAARCVRYGGRYDYWGQGTQVTVSS | high polyreactivity |
| QVQLVESGVRLVQAGGSLRLSCAASGFTFRLYAMGWYIQAPGKERELVAATTSGGSTYYADSVKGRFTISRDNAKNTVYLQMNSLKPEDTAVYYCNKLYRTSVEYDYWGQGTQVTVSS | high polyreactivity |
| QGQLVESGGGLVQAGCSLRLSCAASGSTFRRYAMGWDRQAPGKERELVATINWSGGRTYYADSVKGRFTISRDNAKKTGSLQMNRLKPVDTAVYYCAKADYYGYHYYYWGQGTQVTVSS | high polyreactivity |
| QVQLVESGGRLVQEGGSLRLSCAASGRTFSKYAMGWYRQAPGKERELVAAITWRGGRTYYADSVNGRFTISRDNAKNTVYLQMNSLKPEDTAVYYCAADPSIYRIYQYTNRYDYWGQGTQVTVSS | high polyreactivity |
| QVHLVESGGVLVQAGGSLLLSCGACGSIFAQYTMGWYRNAPGKDRELVAAISSSGGSTYYADSVKGRFTISRDNANNTFYLQMNSLKAEDTAVYYCAARGAHYLRSGDHWGQGTQVNVSS | low polyreactivity |
